The target in this assay is AMC008 SOSIP.v4.2 Env (HIV-1 (clade B, isolate AMC008)). The assay is described as follows: mass photometry; AMC008 alone or with one excess Fab, 1:9 molar ratio in PBS, on ice 30 minutes, diluted in PBS; mass increase divided by 55 kDa per Fab.
As to AMC008 SOSIP.v4.2 Env (complex), the stoichiometry N worked out at 3.

In the case of antibody b12 Fab, the stoichiometry N was 3.09 Fab/55 kDa.

For antibody 3BC315 Fab, the stoichiometry N came out at 2.07 Fab/55 kDa.

For the origin of these results see publication PMC13168245.
